Assays:
[1] = target: T1, Tdp1(Δ148) (Homo sapiens, UniProt Q9NUW8 149-608); assay: X-ray crystal structure (3.18 Å); product complex; Cross-linking: 10 mM Tris-HCl pH 7.5, 100 mM KCl, 5 µM each, 15 min room temperature then 15 min on ice, UV 312 nm 30 min on ice. Crystal complex: 50 mM HEPES pH 7.8, 50 mM NaCl, on ice, 110 µM complex; conditions: protein: recombinant; tags: N-terminal His6; chain copies: 2; blunt, self-complementary, 2 copies of one strand
[2] = target: Tdp1(Δ148) H263A (Homo sapiens, UniProt Q9NUW8 149-608, H263A); assay: UV cross-linking (312 nm), SDS-PAGE and MS; cross-link via F259; Cross-linking: 10 mM Tris-HCl pH 7.5, 100 mM KCl, 5 µM each, 15 min room temperature then 15 min on ice, UV 312 nm 30 min on ice. Crystal complex: 50 mM HEPES pH 7.8, 50 mM NaCl, on ice, 110 µM complex; conditions: protein: recombinant; tags: N-terminal His6; label: 5' 32P (tracer); 3' biotin-TEG; single strand
[3] = target: T1, Tdp1(Δ148); assay: X-ray crystal structure (2.04 Å); 3'-phosphorylated product complex; Cross-linking: 10 mM Tris-HCl pH 7.5, 100 mM KCl, 5 µM each, 15 min room temperature then 15 min on ice, UV 312 nm 30 min on ice. Crystal complex: 50 mM HEPES pH 7.8, 50 mM NaCl, on ice, 110 µM complex; conditions: protein: recombinant; tags: N-terminal His6; chain copies: 2; blunt, self-complementary, 2 copies of one strand

Sequence of Tdp1(Δ148) H263A (Q9NUW8 149-608 H263A): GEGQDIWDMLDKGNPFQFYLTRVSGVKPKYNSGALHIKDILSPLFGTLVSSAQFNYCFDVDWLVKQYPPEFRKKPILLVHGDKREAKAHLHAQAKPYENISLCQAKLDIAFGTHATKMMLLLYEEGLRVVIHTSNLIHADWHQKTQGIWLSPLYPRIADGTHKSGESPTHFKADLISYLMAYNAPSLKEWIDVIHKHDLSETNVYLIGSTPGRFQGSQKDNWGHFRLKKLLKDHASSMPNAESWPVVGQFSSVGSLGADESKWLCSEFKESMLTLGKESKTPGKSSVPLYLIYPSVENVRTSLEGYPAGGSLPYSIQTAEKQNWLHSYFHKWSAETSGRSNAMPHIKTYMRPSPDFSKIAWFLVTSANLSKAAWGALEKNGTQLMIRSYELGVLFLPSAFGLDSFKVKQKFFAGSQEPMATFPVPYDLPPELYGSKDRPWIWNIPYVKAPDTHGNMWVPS
T1 sequence (Q9NUW8 149-608, stated change not applied): as the sequence (Q9NUW8 149-608 H263A) above, with A115H counted along it

| Binder | binding result [2] | other results |
| --- | --- | --- |
| -2T 12-mer duplex (dsDNA) DNA 1: CAATGCGCATTG DNA 2: CAATGCGCATTG |  | binding result [1]: binds |
| GTAGAGGATCTAAAAGACUT (ssDNA, 5-iodouracil (5-iodo-dU) at nt 19) [5IdU(-2) 20-mer] | binds |  |
| GTAGAGGATCTAAAAGAUTT (ssDNA, 5-iodouracil (5-iodo-dU) at nt 18) [5IdU(-3) 20-mer] | binds |  |
| -2G 12-mer duplex (dsDNA) DNA 1: CACTGCGCAGTG DNA 2: CACTGCGCAGTG |  | binding result [3]: binds |

Reference: publication PMC5750209, “Structural basis for DNA 3′-end processing by human tyrosyl-DNA phosphodiesterase 1”
